Laboratory results: patent publication EP3466970A1 (Orum Therapeutics Inc., dated 2019)

Biological target: T1, mCherry (red fluorescence) H-RAS G12V expressed in NIH3T3 cells (UniProt P01112 1-186, limits assumed)
T1 construct: Intracellular target at the inner cell membrane; also called intracellular H-RAS G12V mutants
Assay: confocal microscopy, colocalisation in NIH3T3 cells expressing mCherry H-RAS G12V

B1: cytosol-penetrating antibody (cytotransmab) TMab4 (antibody, V domains shown)
VH: EVQLVESGGGLVQPGGSLRLSCAASGYTFTSYVMHWVRQAPGKGLEWVSAINPYNDGNYYADSVKGRFTISRDNSRKTLYLQMNSLRAEDTAVYYCARGAYKRGYAMDYWGQGTTVTVSS
VL: DLVMTQSPSSLSASVGDRVTITCKSSQSLFNSRTRKNYLAWYQQKPGKAPKLLIYWASTRESGVPSRFSGSGSGTDFTLTISSLQPEDFATYYCQQYYYHMYTFGQGTKVEIKR
notes: Intact IgG-format monoclonal antibody; Used as negative control in the RAS assays; also called CT
- binding result: no binding (tested: 2 µM)
